T1: CD27 protein (His-tagged, Sino Biological Inc. 10039-H08B1) (human, UniProt P26842 20-192)
T1 construct: bought; coated onto ELISA plates; also called human CD27; recombinant protein; not shown: His tag
T1 sequence (looked up): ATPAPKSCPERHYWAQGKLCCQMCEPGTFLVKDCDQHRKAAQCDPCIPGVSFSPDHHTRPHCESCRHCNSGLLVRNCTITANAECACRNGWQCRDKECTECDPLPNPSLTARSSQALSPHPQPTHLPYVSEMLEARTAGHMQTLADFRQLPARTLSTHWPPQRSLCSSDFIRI

T2: CD27 expressed on the cell surface (HT1080_CD27 cells) (human, UniProt P26842 20-260)
T2 sequence (looked up): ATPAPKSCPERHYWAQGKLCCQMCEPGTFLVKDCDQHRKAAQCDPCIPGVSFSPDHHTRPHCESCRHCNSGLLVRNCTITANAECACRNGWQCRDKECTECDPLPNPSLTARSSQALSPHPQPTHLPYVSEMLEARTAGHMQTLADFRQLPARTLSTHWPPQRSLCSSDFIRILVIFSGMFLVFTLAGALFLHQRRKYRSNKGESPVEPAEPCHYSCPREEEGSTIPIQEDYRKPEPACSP

B1: P018.S.06.A.C02 (antibody, V domains shown)
VH: QSVEESGGRLVTPGTPLTLTCIVSGIDLSSNAMSWVRQAPGKGLEWIGIIGFAGITYYANWAKGRFTISKTSTTVDLKITSPTTEDTATYFCARAYGDSDGLYNLWGQGTLVTVSS
VL: AQVLTQTASSVSAAVGGTVTISCQSSESVYNNNWLGWFQQKPGQPPKLLIYLASTLASGVPSRFKGSGSGTQFTLTISDLESDDAATYYCQGGYSGNIFAFGGGTEVVVN
notes: V regions on human Ig constant parts; also called AB27_100
B2: P018.S.06.A.H04 (antibody, V domains shown)
VH: QEKLEESGGGLVKPGGSLTLPCTASGFTLSSRYYMCWVRQAPGKGLEWIGCIYAGSLRTWYASWAKGRFTISKTSSTTVTLQMTSLTAADTATYFCARSPGVAASYPELWGPGTLVTVSS
VL: AQVLTQTPSSVAAAVGGTVSISCQSSQSVGNADNLAWYQQKPGQPPNLLIYYAASLASGVPSRFKGSGSGTQFTLTISDLESDDAATYYCGGGYYNSTDTFYTFGGGTEVVVK
notes: V regions on human Ig constant parts; also called AB27_111
B3: P018.S.03.A.C04 (antibody, V domains shown)
VH: QSVEESGGRLVTPGTPLTLTCTVSGVDLSRYAMSWVRQAPGEGLEWIGTIWYSGTTYYASWAKGRFTISKTSSTTVDLKMTSLTAADTATYFCARDPLYVGGNSGSDLWGPGTLVTVSS
VL: DVVMTQTPASVSAAVGGTVTINCQASQSIGSSLAWYQQKPGQRPKLLIYYASTLASGVPSRFSGSGSGTEFTLTISDLESADAATYYCQSNYGAASSSYGAFGGGTEVVVK
notes: V regions on human Ig constant parts; also called AB27_45
B4: P018.S.01.A.E05 (antibody, V domains shown)
VH: QEQLVESGGGLVQPEGSLTLTCTASGFSFSSRYYMCWVRQAPGKGLEWIACIAPDVSGSAYYATWAKGRITISETSSTTVTLRMTSLTAADTAIYFCARSVPGSLFYFQLWGPGTVVTVSS
VL: AAVLTQTPPSVSAAVGGTVTIKCQSSQSVYNKNEFSWYQQKPGQPPKLLIYDASTLASGVPSRFKGSGSGTQFTLTISDLESDDAATYYCQGSYYSSGSYTAFGGGTEVVVK
notes: V regions on human Ig constant parts; also called AB27_17
B5: P018.S.03.A.D03 (antibody, V domains shown)
VH: QEQLVESGGGLVQPEGSLTLTCTASGFSFNNNYVMSWVRQAPGKGLEWIGTIYVVSGSTYYASWVNGRFSISKTSSTTVTLQMTSLTDADTATYFCARDQLYNSGYDFDLWGPGTLVIVSS
VL: AQVLTQTASPVSAAVGSTVTISCQSSQSVYNNNELSWYQQKPGQPPKLLIYQASKLASGVSSRFSGSESGTQFTLTISGVQSDDAATYYCQGTYYRSGLDNGFGGGTEVVVK
notes: V regions on human Ig constant parts; also called AB27_48
B6: P018.S.02.A.A01 (antibody, V domains shown)
VH: QSVEESGGRLVTPGTPLTLTCTVSGIDLSRYAMGWVRQAPGKGLEYIGIISSSGSTYYASWIKGRFTISKTSTTVDLKITSPTTEDTATYFCARSPYASTSASAFNLWGPGTLVTVSS
VL: AFELTQTPSSVEAAVGGTVTIKCQASQSISSWLSWYQQKPGQPPKLLIYEASKLASGVPSRFKGSGSGTQFTLTISDLESADAATYYCQSYSSTTTNTFGGGTEVVVK
notes: V regions on human Ig constant parts; also called AB27_27
B7: P018.S.06.A.A02 (antibody, V domains shown)
VH: QEQLVESGGGLVQPEGSLTLTCTSSGFSLNSNYYISWVRQAPGKGLEWIACIDAGSGSTWYASWVKGRFTISKTSSTTVTLQMTSLTAADTATYFCARDDIGTSYEYYFGLWGPGTLVTVSS
VL: DVVLTQTPASVSEPVGGTVTIKCQASQTISSYLAWYQQKSGQPPKLLIYSASTLASGVSSRFKGSGSGTEYTLTISDLESADAATYYCQTYYGSDSYVFGGGTEVVVK
notes: V regions on human Ig constant parts; also called AB27_95

Each binder was assayed against T1, CD27 protein (His-tagged, Sino …) (assay: ELISA on coated His-tagged CD27).
Also: test concentration or dose not given here.

ELISA [abs. corr.] | Binder
3.23 abs. corr. | B1
3.23 abs. corr. | B2
3.52 abs. corr. | B3
3.22 abs. corr. | B4
3.22 abs. corr. | B5
3.23 abs. corr. | B6
3.23 abs. corr. | B7

Each binder was assayed against T2, CD27 expressed on the cell surface … (assay: cell-based or functional assay).

IL-8, cross-linked by F(ab')2 fragment [abs. corr.] | IL-8 [abs. corr.] | Binder
1.61 abs. corr. | 0.519 abs. corr. | B1
1.69 abs. corr. | 0.173 abs. corr. | B2
1.48 abs. corr. | 0.394 abs. corr. | B3
1.33 abs. corr. | 0.209 abs. corr. | B4
1.05 abs. corr. | 0.281 abs. corr. | B5
1.62 abs. corr. | 0.4 abs. corr. | B6
1.81 abs. corr. | 0.737 abs. corr. | B7

Each binder was assayed against T2, CD27 expressed on the cell surface … (assay: cellular binding assay, HT1080_CD27 cells).

Cellular binding assay [RFU] | Binder
283 RFU | B1
331 RFU | B2
337 RFU | B3
420 RFU | B4
320 RFU | B5
350 RFU | B6
366 RFU | B7
